From patent US12303551B2, “Cellular immunotherapy compositions and uses thereof” (CERO THERPEUTICS HOLDINGS, INC., priority 2018, dated 2025)

Legend:
[1] = test system: E6/E7-specific human TCR/NFAT reporter cell line; assay: Antigen cross-presentation assay with E6/E7 TCR Jurkat NFAT luciferase reporter cells; assay type: cell-based; settings: CD4+ and CD8+ CER T cells after phagocytosing HPV+ tumor cells; compared to mock transduced T cells
Experimental: In a phagocytic assay step, CD4+ and CD8+ T cell lines expressing CERs were co-cultured with the CD4+ and CD8+ T cells expressing HPV E7 specific TCR and SCC152 (HPV+) cells overnight. The following day CER+ T cells were subsequently FACS-sorted. FACS plot depicts CT violet^+ CERs. Following FACS purification, antigen presentation of HPV oncoproteins was evaluated. CER-expressing cells were co-cultured at a 1:2 ratio with E6 & E7-specific TCR/NFAT reporter cell lines, and NFAT activation measured over time using a plate reader.
CER-expressing CD4^+ and CD8^+ T cell lines, after phagocytosing HPV^+ tumor cells, are capable of cross-presentation of E7 HPV oncoproteins to E7 TCR/NFAT reporter-expressing T cells as measured by NFAT activation.
CD4+ and CD8+ CER-expressing T cell lines were established from human PBMCs. […]
For assessing MHC-I cross-presentation, SCC152 HPV^+ cells were co-cultured overnight with CER123-expressing CD4+ and CD8+ T cells or mock-transduced (vector only) T cells in the presence of T cells expressing an E7-specific TCR. […] NFAT activation was assessed at serial time points (0, 6, 12, 24, and 72 hrs) by measuring luciferase activity in cell culture supernatants. […] Induction of E711-19-specific Jurkat T cells were quantified by luminescence of NFAT signaling at indicated time points and compared to Mock (vector-alone) transduced T cells (FIG. 63).

[2] = test system: HPV+ SCC152/luceriferase+ cells; assay: SCC152/luciferase xenograft in NSG mice, bioluminescence imaging; assay type: in vivo; settings: CER CD4+ T cells added 1:1 to HPV E7 CD8+ T cells
Experimental: HPV+ SCC152 engrafted NSG mice were treated with HPV E7 TCR modified CD8+ T cells+CD4+ T cells (mock transduced), HPV E7 TCR modified CD8+ T cells+hCER104 modified CD4+ T cells, or untreated. FIG. 74B is a graph of mean values of bioluminescence signal intensities obtained for treatment group.
HPV+ SCC152/luceriferase^+ cells were engrafted in NSG mice. Once tumors were established, mice were treated with HPV E7 specific TCR (SEQ ID NO:84) modified CD8+ T cells+mock transduced CD4+ T cells, HPV E7 specific TCR modified CD8+ T cells+hCER104 (SEQ ID NO:176) modified CD4+ T cells, or untreated (n=5 per treatment group). HPV E7 CD8+ T cells and hCER104 CD4+ T cells were administered at a 1:1 ratio. Tumor volume was measured over time by bioluminescence imaging (see, FIGS. 74A-74B).

HCC827 NSCLC cells = assay: FACS phagocytosis assay of TAMRA-SE labeled HCC827 cells with or without bafilomycin; assay type: cell-based; settings: CER-modified T cells, osimertinib treated HCC827, FACS
Excerpt: FIGS. 73A-73B show ablation of CER-induced phagocytosis by bafilomycin, an inhibitor of phagolysosome V-ATPase. CER104-modified CD4+ T cells and mock transduced CD4+ T cells (control) were co-cultured with HCC827 cells that were labeled with TAMRA-SE fluorescent dye and treated with osimertinib. Phagocytosis was quantified by FACs.
T cells were transduced with lentiviral vector comprising hCER104 nucleic acid as described in Example 6. hCER104 modified T cells were co-cultured with HCC827 adenocarcinoma cells with or without osimertinib. […] FACs plots from in vitro phagocytosis assays in hCER104 modified T cells or mock transduced control T cells are shown in FIG. 73B.

[3] = test system: HCC827 NSCLC adenocarcinoma cells; assay: HCC827 viability (MTT) and phase contrast microscopy after co-culture with or without osimertinib; assay type: cell-based
Experimental: Assays were performed at an effector to target cell ratio of 5:1 in the presence or absence of an EGFR small molecular inhibitor (1 nM osimertinib). Co-culture of hCER104 modified CD3+ T cells was compared with co-culture of purified hCER104 modified CD4+ T cells. Cell viability was quantified using 3-(4,5-dimethylthiazol-2-yl)-2,5-diphenyltetrazolium bromide (MTT) assay.
Specific target cell killing of HCC827 observed in hCER104 modified T cells in the presence of osimertinib.
hCER104 modified CD3+ T cells and hCER104 modified CD4+ T cells were co-cultured with HCC827 NSCLC adenocarcinoma cells treated for 48 hours with or without 1 nM osimertinib at an effector to target cell ratio of 5:1. Mock transduced T cells were used as control.

[4] = test system: HCC827 NSCLC adenocarcinoma cells; assay: FACS phagocytosis assay with pHrodo-red labeled HCC827 cells; assay type: cell-based; settings: for % phagocytosis (pHrodo-positivity): overnight co-culture with HCC827
Excerpt: FIG. 67B is a bar graph of frequency of phagocytosis among CER-modified CD4+_T cells vs. CER-modified CD8+ T cells
CD4+ or CD3+ T cells were purified from PBMCs, activated, and transduced with lentiviral vector comprising hCER104 nucleic acid. hCER104 is a human CER104 construct comprising a Tim4 binding domain, a Tim4 transmembrane domain, TLR8 engulfment signaling domain, and Dap12 engulfment signaling domain and comprises an amino acid sequence of SEQ ID NO:176. HCC827 cells harbor an EGFR mutation and treatment with EGFR inhibitor osimertinib induces exposure of phosphatidylserine on the cell surface. Transduced T cells were expanded. CER-modified T cells were co-cultured with pHrodo-red labeled HCC827 NSCLC adenocarcinoma cells overnight and evaluated by FACs for pHrodo-positive signals to detect phagocytosis of HCC827 target cells (see, FIG. 67A, box inside FACs plot indicates % phagocytosis). T cell subsets were analyzed for their capacity to phagocytosis using antibody staining. Frequency of in vitro phagocytosis among CD4+ CER-modified T cells was much higher than CD8+ CER-modified T cells (see, FIG. 67B).

B1: CER123: Chimeric engulfment receptor: Tim4 binding, Tim4 transmembrane, TLR2 and TRAF6 signaling; SEQ ID NO: 164 (protein)
chain: MSKGLLLLWLVTELWWLYLTPAASEDTIIGFLGQPVTLPCHYLSWSQSRNSMCWGKGSCPNSKCNAELLRTDGTRIISRKSTKYTLLGKVQFGEVSLTISNTNRGDSGVYCCRIEVPGWFNDVKKNVRLELRRATTTKKPTTTTRPTTTPYVTTTTPELLPTTVMTTSVLPTTTPPQTLATTAFSTAVTTCPSTTPGSFSQETTKGSAFTTESETLPASNHSQRSMMTISTDIAVLRPTGSNPGILPSTSQLTTQKTTLTTSESLQKTTKSHQINSRQTILIIACCVGFVLMVLLFLAFLHRFHGLWYMKMMWAWLQAKRKPRKAPSRNICYDAFVSYSERDAYWVENLMVQELENFNPPFKLCLHKRDFIPGKWIIDNIIDSIEKSHKTVFVLSENFVKSEWCKYELDFSHFRLFDENNDAAILILLEPIEKKAIPQRFCKLRKIMNTKTYLEWPMDEAQREGFWVNLRAAIKSMSLLNCENSCGSSQSESDCCVAMASSCSAVTKDDSVGGTASTGNLSSSFMEEIQGYDVEFDPPLESKYECPICLMALREAVQTPCGHRFCKACIIKSIRDAGHKCPVDNEILLENQLFPDNFAKREILSLMVKCPNEGCLHKMELRHLEDHQAHCEFALMDCPQCQRPFQKFHINIHILKDCPRRQVSCDNCAASMAFEDKEIHDQNCPLANVICEYCNTILIREQMPNHYDLDCPTAPIPCTFSTFGCHEKMQRNHLARHLQENTQSHMRMLA
modifications: CER123, amino acids 1-22 are signal peptide
cross-presentation of HPV E7 oncoproteins (NFAT luminescence) [1]: enhanced cross-presentation efficiency

B2: hCER104: human CER104 construct: Tim4 binding domain, Tim4 transmembrane domain, TLR8 and Dap12 engulfment signaling domains; SEQ ID NO:176 (protein)
chain: ETVVTEVLGHRVTLPCLYSSWSHNSNSMCWGKDQCPYSGCKEALIRTDGMRVTSRKSAKYRLQGTIPRGDVSLTILNPSESDSGVYCCRIEVPGWFNDVKINVRLNLQRASTTTHRTATTTTRRTTTTSPTTTRQMTTTPAALPTTVVTTPDLTTGTPLQMTTIAVFTTANTCLSLTPSTLPEEATGLLTPEPSKEGPILTAESETVLPSDSWSSVESTSADTVLLTSKESKVWDLPSTSHVSMWKTSDSVSSPQPGASDTAVPEQNKTTKTGQMDGIPMSMKNEMPISQLLMIIAPSLGFVLFALFVAFLHHLFYWDVWFIYNVCLAKVKGYRSLSTSQTFYDAYISYDTKDASVTDWVINELRYHLEESRDKNVLLCLEERDWDPGLAIIDNLMQSINQSKKTVFVLTKKYAKSWNFKTAFYLALQRLMDENMDVIIFILLEPVLQHSQYLRLRQRICKSSILQWPDNPKAEGLFWQTLRNVVLTENDSRYNNMYVDSIKQYYFLGRLVPRGRGAAEAATRKQRITETESPYQELQGQRSDVYSDLNTQRPYYK
modifications: hCER104
tumor killing (bioluminescence) [2]: enhanced tumor killing in vivo
phagocytosis of fluorescent dye-labeled HCC827 cells (HCC827 NSCLC cells): exhibited phagocytosis
killing of HCC827 cells, phase contrast microscopy ([3]; 48 hours co-culture, CD4+ and CD3+ T cells, in the presence of osimertinib): specific cell killing
HCC827 cell viability (MTT), CD4+ versus CD3+ CER-modified T cells ([3]; 48 hours, effector to target 5:1, with or without 1 nM osimertinib): lower cell viability
% phagocytosis (pHrodo-positivity) ([4]; CER-modified CD4+ T cells): 42.0%
% phagocytosis (pHrodo-positivity) ([4]; CER-modified CD8+ T cells): 9.81%
frequency of in vitro phagocytosis, CD4+ versus CD8+ CER-modified T cells ([4]; HCC827 target cells): much higher
